Test results as given in patent US20250262210A1 (TRUSTEES OF COLUMBIA UNIVERSITY IN THE CITY OF NEW YORK, published 2025).

Key:
Test in all cases: IP/MS, LZTR1 R810W-FLAG, U87
CA9 = CA9 (human, UniProt Q16790 38-459)
Procedure, shortened: (§1)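 Read-out: spectral counts from LC-MS/MS (Orbitrap Fusion) after MaxQuant identification. Variable modifications were Met oxidation, protein N-terminal acetylation and N/Q deamidation.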

RANBP6 = target: T1, RANBP6 (human, UniProt O60518 2-1105)
T1 sequence (looked up): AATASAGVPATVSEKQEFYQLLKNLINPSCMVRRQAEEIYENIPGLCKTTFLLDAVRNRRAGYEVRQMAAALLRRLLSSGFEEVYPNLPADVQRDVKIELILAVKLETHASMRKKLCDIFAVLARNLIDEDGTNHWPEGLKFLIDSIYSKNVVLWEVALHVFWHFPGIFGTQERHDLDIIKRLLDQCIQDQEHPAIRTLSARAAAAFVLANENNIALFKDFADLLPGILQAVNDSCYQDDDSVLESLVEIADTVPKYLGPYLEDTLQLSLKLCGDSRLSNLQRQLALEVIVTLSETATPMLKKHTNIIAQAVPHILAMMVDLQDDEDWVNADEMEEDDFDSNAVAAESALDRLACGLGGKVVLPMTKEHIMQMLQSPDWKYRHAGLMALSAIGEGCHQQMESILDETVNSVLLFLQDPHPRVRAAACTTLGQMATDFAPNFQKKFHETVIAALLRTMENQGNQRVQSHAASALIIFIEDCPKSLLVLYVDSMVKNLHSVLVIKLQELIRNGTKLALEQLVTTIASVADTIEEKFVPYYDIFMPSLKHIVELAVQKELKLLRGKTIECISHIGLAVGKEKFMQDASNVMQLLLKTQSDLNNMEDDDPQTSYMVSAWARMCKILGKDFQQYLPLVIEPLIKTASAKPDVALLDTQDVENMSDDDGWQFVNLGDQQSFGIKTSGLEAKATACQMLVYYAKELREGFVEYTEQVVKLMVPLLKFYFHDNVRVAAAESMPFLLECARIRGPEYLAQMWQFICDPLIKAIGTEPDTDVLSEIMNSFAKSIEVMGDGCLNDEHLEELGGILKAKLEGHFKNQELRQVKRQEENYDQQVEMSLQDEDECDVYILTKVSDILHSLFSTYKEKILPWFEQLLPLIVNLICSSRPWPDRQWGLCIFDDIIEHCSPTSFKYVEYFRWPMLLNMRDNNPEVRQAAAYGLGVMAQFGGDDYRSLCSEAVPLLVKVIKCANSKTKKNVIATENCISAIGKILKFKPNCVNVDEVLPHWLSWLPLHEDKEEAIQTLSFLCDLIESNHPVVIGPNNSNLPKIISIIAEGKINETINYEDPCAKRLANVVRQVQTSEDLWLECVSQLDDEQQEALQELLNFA
Procedure, shortened: as §1

RAPH1 = target: T2, RAPH1 (human, UniProt Q70E73 1-1250, limits assumed)
T2 sequence (looked up): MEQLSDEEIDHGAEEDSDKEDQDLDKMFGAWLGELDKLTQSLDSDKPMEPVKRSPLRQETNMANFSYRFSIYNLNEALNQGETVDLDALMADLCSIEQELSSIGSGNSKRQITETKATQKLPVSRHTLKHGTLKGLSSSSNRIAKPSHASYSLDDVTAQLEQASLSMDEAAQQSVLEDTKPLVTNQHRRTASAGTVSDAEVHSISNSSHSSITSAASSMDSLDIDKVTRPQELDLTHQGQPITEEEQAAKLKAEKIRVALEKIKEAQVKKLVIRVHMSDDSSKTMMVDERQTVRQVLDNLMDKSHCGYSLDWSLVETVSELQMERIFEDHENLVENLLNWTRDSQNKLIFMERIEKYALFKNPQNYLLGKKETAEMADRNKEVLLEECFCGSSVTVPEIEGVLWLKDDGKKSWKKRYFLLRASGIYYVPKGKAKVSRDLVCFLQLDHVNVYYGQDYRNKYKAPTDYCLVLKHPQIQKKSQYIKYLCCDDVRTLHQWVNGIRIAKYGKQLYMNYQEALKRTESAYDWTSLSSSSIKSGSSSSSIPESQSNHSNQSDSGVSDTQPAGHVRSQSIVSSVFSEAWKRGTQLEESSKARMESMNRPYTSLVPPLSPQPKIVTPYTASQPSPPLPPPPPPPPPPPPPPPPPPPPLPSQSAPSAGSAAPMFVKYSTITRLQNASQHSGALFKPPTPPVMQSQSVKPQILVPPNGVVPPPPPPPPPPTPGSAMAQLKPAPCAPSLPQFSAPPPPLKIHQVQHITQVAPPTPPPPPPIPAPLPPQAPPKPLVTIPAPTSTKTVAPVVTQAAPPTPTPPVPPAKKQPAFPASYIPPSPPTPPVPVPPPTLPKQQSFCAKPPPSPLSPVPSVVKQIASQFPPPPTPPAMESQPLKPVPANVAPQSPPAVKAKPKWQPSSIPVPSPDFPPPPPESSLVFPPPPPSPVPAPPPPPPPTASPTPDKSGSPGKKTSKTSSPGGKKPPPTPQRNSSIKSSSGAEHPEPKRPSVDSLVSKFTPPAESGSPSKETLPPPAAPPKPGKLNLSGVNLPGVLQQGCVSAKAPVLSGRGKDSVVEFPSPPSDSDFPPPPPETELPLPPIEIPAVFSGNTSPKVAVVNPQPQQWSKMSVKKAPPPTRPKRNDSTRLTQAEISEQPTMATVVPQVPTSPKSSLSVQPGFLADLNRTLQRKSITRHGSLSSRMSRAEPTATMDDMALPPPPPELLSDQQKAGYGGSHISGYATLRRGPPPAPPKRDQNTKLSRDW
Procedure, shortened: as §1

Measured: binding result

B1: LZTR1 R810W-FLAG (other, human, UniProt Q8N653 1-840, looked up)
chain: MAGPGSTGGQIGAAALAGGARSKVAPSVDFDHSCSDSVEYLTLNFGPFETVHRWRRLPPCDEFVGARRSKHTVVAYKDAIYVFGGDNGKTMLNDLLRFDVKDCSWCRAFTTGTPPAPRYHHSAVVYGSSMFVFGGYTGDIYSNSNLKNKNDLFEYKFATGQWTEWKIEGRLPVARSAHGATVYSDKLWIFAGYDGNARLNDMWTIGLQDRELTCWEEVAQSGEIPPSCCNFPVAVCRDKMFVFSGQSGAKITNNLFQFEFKDKTWTRIPTEHLLRGSPPPPQRRYGHTMVAFDRHLYVFGGAADNTLPNELHCYDVDFQTWEVVQPSSDSEVGGAEVPERACASEEVPTLTYEERVGFKKSRDVFGLDFGTTSAKQPTQPASELPSGRLFHAAAVISDAMYIFGGTVDNNIRSGEMYRFQFSCYPKCTLHEDYGRLWESRQFCDVEFVLGEKEECVQGHVAIVTARSRWLRRKITQARERLAQKLEQEAAPVPREAPGVAAGGARPPLLHVAIREAEARPFEVLMQFLYTDKIKYPRKGHVEDVLLIMDVYKLALSFQLCRLEQLCRQYIEASVDLQNVLVVCESAARLQLSQLKEHCLNFVVKESHFNQVIMMKEFERLSSPLIVEIVRRKQQPPPRTPLDQPVDIGTSLIQDMKAYLEGAGAEFCDITLLLDGHPRPAHKAILAARSSYFEAMFRSFMPEDGQVNISIGEMVPSRQAFESMLRYIYYGEVNMPPEDSLYLFAAPYYYGFYNNRLQAYCKQNLEMNVTVQNVLQILEAADKTQALDMKRHCLHIIVHQFTKVSKLPTLWSLSQQLLLDIIDSLASHISDKQCAELGADI
notes: Stably expressed in U87 cells by lentivirus; also called LZTR1-FLAG-R810W; LZTR1 RW; not shown: FLAG tag
binds: all assays above
